# Key:
# HLA-A*11:01 = experiment: IEDB peptide-MHC binding, purified MHC/direct/fluorescence; filed as Kd, often an IC50 or EC50 that approximates it; ≥ and ≤ were set here for values at or beyond the usual limits of such assays
# HLA-A*01:01 [1] = experiment: as above
# HLA-B*15:01 = experiment: as above
# HLA-A*03:01 = experiment: as above
# HLA-B*27:05 = experiment: as above
# HLA-A*26:01 [2] = experiment: as above
# HLA-A*02:06 = experiment: IEDB peptide-MHC binding, purified MHC/competitive/radioactivity; filed as Kd, often an IC50 or EC50 that approximates it; ≥ and ≤ were set here for values at or beyond the usual limits of such assays
# HLA-A*02:02 = experiment: as above
# HLA-A*02:03 = experiment: as above
# HLA-A*31:01 = experiment: IEDB peptide-MHC binding, purified MHC/direct/fluorescence; filed as Kd, often an IC50 or EC50 that approximates it; ≥ and ≤ were set here for values at or beyond the usual limits of such assays
# HLA-A*68:01 = experiment: IEDB peptide-MHC binding, purified MHC/competitive/radioactivity; filed as Kd, often an IC50 or EC50 that approximates it; ≥ and ≤ were set here for values at or beyond the usual limits of such assays; conditions: source organism: SARS coronavirus Tor2
# HLA-A*33:01 = experiment: as above; conditions: source organism: SARS coronavirus Tor2
# HLA-A*69:01 = experiment: IEDB peptide-MHC binding, purified MHC/direct/fluorescence; filed as Kd, often an IC50 or EC50 that approximates it; ≥ and ≤ were set here for values at or beyond the usual limits of such assays
# HLA-B*44:03 = experiment: IEDB peptide-MHC binding, purified MHC/competitive/radioactivity; filed as Kd, often an IC50 or EC50 that approximates it; ≥ and ≤ were set here for values at or beyond the usual limits of such assays
# HLA-A*24:02 = experiment: as above; conditions: source organism: Dengue virus 2 Jamaica/1409/1983
# HLA-A*23:01 = experiment: as above; conditions: source organism: Dengue virus 2 Jamaica/1409/1983
# HLA-A*02:01 = experiment: IEDB peptide-MHC binding, purified MHC/competitive/fluorescence; filed as Kd, often an IC50 or EC50 that approximates it; ≥ and ≤ were set here for values at or beyond the usual limits of such assays
# HLA-B*07:02 = experiment: IEDB peptide-MHC binding, purified MHC/direct/fluorescence; filed as Kd, often an IC50 or EC50 that approximates it; ≥ and ≤ were set here for values at or beyond the usual limits of such assays; conditions: source organism: Homo sapiens
# HLA-B*40:01 = experiment: as above; conditions: source organism: Mycobacterium tuberculosis
# HLA-A*01:01 [3] = experiment: IEDB peptide-MHC binding, purified MHC/competitive/radioactivity; filed as Kd, often an IC50 or EC50 that approximates it; ≥ and ≤ were set here for values at or beyond the usual limits of such assays; conditions: source organism: Mammarenavirus brazilense
# HLA-A*29:02 = experiment: as above; conditions: source organism: Mammarenavirus brazilense
# HLA-A*32:01 = experiment: as above
# HLA-A*30:02 = experiment: as above; conditions: source organism: Mammarenavirus brazilense
# HLA-A*26:01 [4] = experiment: as above; conditions: source organism: Mammarenavirus brazilense
# HLA-A*30:01 = experiment: as above; conditions: source organism: Mammarenavirus brazilense
# HLA-B*39:01 = experiment: IEDB peptide-MHC binding, purified MHC/competitive/fluorescence; filed as Kd, often an IC50 or EC50 that approximates it; ≥ and ≤ were set here for values at or beyond the usual limits of such assays
# HLA-B*58:01 = experiment: IEDB peptide-MHC binding, purified MHC/direct/fluorescence; filed as Kd, often an IC50 or EC50 that approximates it; ≥ and ≤ were set here for values at or beyond the usual limits of such assays; conditions: source organism: Mycobacterium tuberculosis variant bovis BCG str. Pasteur 1173P2
# [5] = source organism: SARS coronavirus Tor2
# [6] = source organism: Mycoplasmoides genitalium
# [7] = source organism: Dengue virus 1 Brazil/97-11/1997
# [8] = source organism: Giardia intestinalis
# [9] = source organism: Dengue virus 2 Jamaica/1409/1983
# [10] = source organism: Mammarenavirus brazilense
# [11] = source organism: Burkholderia lata
# [12] = source organism: Vaccinia virus WR
# [13] = source organism: Cryptosporidium parvum
sequence,measurement,setting,value
ATDFKFAMY,Kd,HLA-A*11:01; source organism: Homo sapiens,2.41 µM
same,Kd,HLA-A*01:01 [1]; source organism: Homo sapiens,135 nM
same,Kd,HLA-B*15:01; source organism: Homo sapiens,4100 nM
same,Kd,HLA-A*03:01; source organism: Homo sapiens,7810 nM
TLMNVITLV,Kd,HLA-A*11:01; source organism: SARS-CoV1,≥ 26.9 µM
same,Kd,HLA-B*27:05; source organism: SARS-CoV1,10.1 µM
same,Kd,HLA-B*15:01; source organism: SARS-CoV1,6120 nM
same,Kd,HLA-A*26:01 [2]; source organism: SARS-CoV1,1120 nM
same,Kd,HLA-A*02:06; [5],0.697 nM
same,Kd,HLA-A*02:02; [5],0.34 nM
same,Kd,HLA-A*02:03; [5],0.251 nM
VTFQGKFKK,Kd,HLA-A*31:01; source organism: SARS-CoV1,70.3 nM
same,Kd,HLA-A*68:01,13.3 nM
same,Kd,HLA-A*33:01,8.58 µM
YSDIPRLKK,Kd,HLA-A*11:01; [6],0.0927 µM
same,Kd,HLA-A*01:01 [1]; [6],1640 nM
same,Kd,HLA-A*31:01; [6],767 nM
same,Kd,HLA-A*03:01; [6],372 nM
same,Kd,HLA-A*69:01; [6],412 nM
TEAKMLLDNI,Kd,HLA-B*44:03; [7],617 nM
SLRPNDIVY,Kd,HLA-A*11:01; [8],7.04 µM
same,Kd,HLA-B*15:01; [8],150 nM
same,Kd,HLA-A*03:01; [8],13600 nM
QWFLDLPLPW,Kd,HLA-A*24:02,115 nM
same,Kd,HLA-A*23:01,11.7 nM
same,Kd,HLA-B*44:03; [9],2780 nM
KLGIGNSPV,Kd,HLA-A*02:01; source organism: Vaccinia virus Copenhagen,6 nM
LPRWPPPQL,Kd,HLA-A*69:01; source organism: Homo sapiens,5500 nM
same,Kd,HLA-B*07:02,164 nM
LEEIGILLL,Kd,HLA-B*40:01,11 nM
TLAAAANSY,Kd,HLA-B*15:01; source organism: Mycobacterium tuberculosis C,571 nM
SEIPNLDIIG,Kd,HLA-B*44:03; [9],1090 nM
ESAQPGLLSY,Kd,HLA-A*01:01 [3],69.8 nM
same,Kd,HLA-A*29:02,3090 nM
same,Kd,HLA-A*32:01; [10],≥ 69.9 µM
same,Kd,HLA-A*30:02,1690 nM
same,Kd,HLA-A*26:01 [4],14.3 nM
same,Kd,HLA-A*30:01,≥ 70400 nM
WRFQGSWNTG,Kd,HLA-A*32:01; [7],≥ 49 µM
SINDPRWGR,Kd,HLA-A*31:01; [11],27.4 nM
same,Kd,HLA-A*03:01; [11],≥ 20000 nM
LFSGVSWVMK,Kd,HLA-A*32:01; source organism: Dengue virus 3 Martinique/1243/1999,10.1 µM
NMKWKFNAL,Kd,HLA-A*02:01; source organism: Campylobacter jejuni subsp. jejuni NCTC 11168 = ATCC 700819,≥ 20000 nM
RETACLGKSY,Kd,HLA-B*44:03; [7],70.3 nM
ITHFCSFNI,Kd,HLA-A*32:01; [12],≥ 20.9 µM
ENARLRALL,Kd,HLA-B*39:01; source organism: Escherichia coli,824 nM
ARLFGIRAK,Kd,HLA-A*11:01; source organism: Homo sapiens,4.24 µM
same,Kd,HLA-B*27:05; source organism: Homo sapiens,1.04 µM
same,Kd,HLA-A*31:01; source organism: Homo sapiens,2940 nM
same,Kd,HLA-A*03:01; source organism: Homo sapiens,1240 nM
RLENVMWKQI,Kd,HLA-A*32:01; source organism: Dengue virus 4 Dominica/814669/1981,1.84 µM
AAAAPYAGW,Kd,HLA-B*58:01,27.1 nM
AMHDKKIDIL,Kd,HLA-A*02:01; source organism: Variola major virus,222 nM
same,Kd,HLA-A*02:06; [12],≥ 69800 nM
same,Kd,HLA-A*02:02; [12],387 nM
same,Kd,HLA-A*02:03; [12],1180 nM
MIRTWRQNK,Kd,HLA-A*31:01; [13],364 nM
same,Kd,HLA-A*03:01; [13],226 nM
ILNDEQLNL,Kd,HLA-A*02:01; source organism: Vaccinia virus Tian Tan,0.7 nM
SSKNQTWQIE,Kd,HLA-A*32:01; source organism: Dengue virus 4 Philippines/H241/1956,≥ 31.6 µM
FKWGKKIIL,Kd,HLA-B*39:01; source organism: Bacillus anthracis str. A0488,12.6 nM
ETPQGLAKI,Kd,HLA-A*26:01 [2]; source organism: West Nile virus,5560 nM
QTDPLWQKY,Kd,HLA-A*26:01 [2]; source organism: Vibrio vulnificus CMCP6,2780 nM
GSLLHGLWPY,Kd,HLA-A*01:01 [3],496 nM
same,Kd,HLA-A*29:02,401 nM
same,Kd,HLA-A*32:01; [10],1.11 µM
same,Kd,HLA-A*30:02,40.4 nM
same,Kd,HLA-A*26:01 [4],≥ 27300 nM
same,Kd,HLA-A*30:01,102 nM

# — the Immune Epitope Database (IEDB)
